From article PMC8754647, “A minimal motif for sequence recognition by mitochondrial transcription factor A (TFAM)” come the findings set out here.

For data set [1], the target named is T1, TFAM (UniProt Q00059 43-246).
T1 sequence: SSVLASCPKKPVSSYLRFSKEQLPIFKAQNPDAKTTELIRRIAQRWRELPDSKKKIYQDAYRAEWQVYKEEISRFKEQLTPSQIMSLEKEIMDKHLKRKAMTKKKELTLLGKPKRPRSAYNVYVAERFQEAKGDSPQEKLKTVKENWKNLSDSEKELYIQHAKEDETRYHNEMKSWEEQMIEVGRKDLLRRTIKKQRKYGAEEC
Kind of data set: fluorescence polarization; 250 mM NaCl; EMSA: 10 mM HEPES pH 8.0, 500 mM NaCl, 2 mM DTT, 130 ug/ml BSA, 5% glycerol, 100 nM DNA, 30 min on ice then 10 min RT; FP: 10 mM HEPES pH 8.0, 150-400 mM NaCl. To be noted: protein: recombinant; tags: His-MBP N-terminal, removed by TEV; label: 5'-Cy3 on strand 1 (EMSA); 6-FAM (FP); blunt. In general terms: Polarisation of emitted light reports the rotation of a fluorescent probe.

The target in data set [2] is T1, TFAM. Kind of data set: fluorescence polarization; 200 mM NaCl; EMSA: 10 mM HEPES pH 8.0, 500 mM NaCl, 2 mM DTT, 130 ug/ml BSA, 5% glycerol, 100 nM DNA, 30 min on ice then 10 min RT; FP: 10 mM HEPES pH 8.0, 150-400 mM NaCl. To be noted: protein: recombinant; tags: His-MBP N-terminal, removed by TEV; label: 5'-Cy3 on strand 1 (EMSA); 6-FAM (FP); blunt.
For data set [3], the target named is T1, TFAM. Kind of data set: fluorescence polarization; 150 mM NaCl; EMSA: 10 mM HEPES pH 8.0, 500 mM NaCl, 2 mM DTT, 130 ug/ml BSA, 5% glycerol, 100 nM DNA, 30 min on ice then 10 min RT; FP: 10 mM HEPES pH 8.0, 150-400 mM NaCl. To be noted: protein: recombinant; tags: His-MBP N-terminal, removed by TEV; label: 5'-Cy3 on strand 1 (EMSA); 6-FAM (FP); blunt.
Data set [4] concerns the target T1, TFAM. Briefly: fluorescence polarization; 300 mM NaCl; EMSA: 10 mM HEPES pH 8.0, 500 mM NaCl, 2 mM DTT, 130 ug/ml BSA, 5% glycerol, 100 nM DNA, 30 min on ice then 10 min RT; FP: 10 mM HEPES pH 8.0, 150-400 mM NaCl. The following applies: protein: recombinant; tags: His-MBP N-terminal, removed by TEV; label: 5'-Cy3 on strand 1 (EMSA); 6-FAM (FP); blunt.
The target of data set [5] is T1, TFAM. Kind of data set: fluorescence polarization; 350 mM NaCl; EMSA: 10 mM HEPES pH 8.0, 500 mM NaCl, 2 mM DTT, 130 ug/ml BSA, 5% glycerol, 100 nM DNA, 30 min on ice then 10 min RT; FP: 10 mM HEPES pH 8.0, 150-400 mM NaCl. To be noted: protein: recombinant; tags: His-MBP N-terminal, removed by TEV; label: 5'-Cy3 on strand 1 (EMSA); 6-FAM (FP); blunt.
Data set [6] concerns the target T1, TFAM. Kind of data set: X-ray crystallography; 2.84 A; one TFAM bridges two DNA molecules; EMSA: 10 mM HEPES pH 8.0, 500 mM NaCl, 2 mM DTT, 130 ug/ml BSA, 5% glycerol, 100 nM DNA, 30 min on ice then 10 min RT; FP: 10 mM HEPES pH 8.0, 150-400 mM NaCl. To be noted: protein: recombinant; tags: His-MBP N-terminal, removed by TEV; 2 DNA molecules bridged per TFAM; ends stacked. In general terms: A gel shift assay detects complexes by their altered migration in electrophoresis.

For data set [7], the target named is T1, TFAM. Kind of data set: EcoRI cleavage protection; 10 mM MgCl2, 50 mM NaCl; EMSA: 10 mM HEPES pH 8.0, 500 mM NaCl, 2 mM DTT, 130 ug/ml BSA, 5% glycerol, 100 nM DNA, 30 min on ice then 10 min RT; FP: 10 mM HEPES pH 8.0, 150-400 mM NaCl. The following applies: protein: recombinant; tags: His-MBP N-terminal, removed by TEV; blunt.
Data set [8] has as its target T1, TFAM. Kind of data set: X-ray crystallography; 2.7 A; EMSA: 10 mM HEPES pH 8.0, 500 mM NaCl, 2 mM DTT, 130 ug/ml BSA, 5% glycerol, 100 nM DNA, 30 min on ice then 10 min RT; FP: 10 mM HEPES pH 8.0, 150-400 mM NaCl. The following applies: protein: recombinant; tags: His-MBP N-terminal, removed by TEV.
The target in data set [9] is T1, TFAM. Kind of data set: EMSA; 500 mM NaCl; apparent Kd; EMSA: 10 mM HEPES pH 8.0, 500 mM NaCl, 2 mM DTT, 130 ug/ml BSA, 5% glycerol, 100 nM DNA, 30 min on ice then 10 min RT; FP: 10 mM HEPES pH 8.0, 150-400 mM NaCl. The following applies: protein: recombinant; tags: His-MBP N-terminal, removed by TEV; label: 5'-Cy3 on strand 1 (EMSA); 6-FAM (FP); blunt.

B1: DNAAA (dsDNA)
DNA 1: AAAAAGAATCATTTGGATATATAGGTAT
DNA 2: ATACCTATATATCCAAATGATTCTTTTT
With B1, the Kd in the data set with TFAM [1] stood at 287 ± 15.7 nM; in the data set with TFAM [2] it was 79 ± 1.4 nM; with TFAM [3], 12 ± 1.5 nM; in the data set with TFAM [4], 877 ± 38.5 nM; in the data set with TFAM [5], 3850 ± 425 nM.

B2: NS2 (dsDNA)
DNA 1: ATCGGAAAGATAATCGAGAATC
DNA 2: GATTCTCGATTATCTTTCCGAT
Regarding B2, in the data set with TFAM [6], the binding result is recorded as “binds”.

B3: DNA2GG (dsDNA)
DNA 1: CTGAAGCCAGTTACCTTTGAAAAAAGAGTTGGTAGCTCTTGATCCAGGAATTCAACCACCGCTGGTAGCGGTGGTTTTTTTATTTGCAAGCAGCAGATTA
DNA 2: TAATCTGCTGCTTGCAAATAAAAAAACCACCGCTACCAGCGGTGGTTGAATTCCTGGATCAAGAGCTACCAACTCTTTTTTCAAAGGTAACTGGCTTCAG
As for B3, the binding result in the data set with TFAM [7] was “binds”.

B4: LSP_B (dsDNA)
DNA 1: AATTGTCAGTGGGGGGTTGATT
DNA 2: AATCAACCCCCCACTGACAATT
B4: the binding result in the data set with TFAM [8] is “binds”.

B5: DNAGG (dsDNA)
DNA 1: AAAAAGAACCATTTGGATACATAGGTAT
DNA 2: ATACCTATGTATCCAAATGGTTCTTTTT
As to B5, the Kd was determined as 86.1 ± 14.3 nM with TFAM [9]; 259 ± 48.2 nM with TFAM [1]; 55.5 ± 6 nM with TFAM [2]; 13.5 ± 0.1 nM with TFAM [3]; 1210 ± 113 nM with TFAM [4]; 5180 ± 502 nM in the data set with TFAM [5].
